According to PMC8809517, “Cofactor-independent RNA editing by a synthetic S-type PPR protein”:

T1: GFP-9S library array, motif 4 ND N98P;D124R (synthetic construct, N98P;D124R)
T1 chain: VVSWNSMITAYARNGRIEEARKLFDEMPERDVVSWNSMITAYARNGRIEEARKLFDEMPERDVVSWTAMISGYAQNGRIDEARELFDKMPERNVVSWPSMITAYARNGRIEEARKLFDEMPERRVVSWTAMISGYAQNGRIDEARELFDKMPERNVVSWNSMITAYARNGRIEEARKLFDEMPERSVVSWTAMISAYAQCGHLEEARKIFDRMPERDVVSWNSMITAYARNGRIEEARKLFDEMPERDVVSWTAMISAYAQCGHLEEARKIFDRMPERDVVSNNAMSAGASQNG

T2: GFP-9S library array, motif 4 ND N98A;D124N (synthetic construct, N98A;D124N)
T2 chain: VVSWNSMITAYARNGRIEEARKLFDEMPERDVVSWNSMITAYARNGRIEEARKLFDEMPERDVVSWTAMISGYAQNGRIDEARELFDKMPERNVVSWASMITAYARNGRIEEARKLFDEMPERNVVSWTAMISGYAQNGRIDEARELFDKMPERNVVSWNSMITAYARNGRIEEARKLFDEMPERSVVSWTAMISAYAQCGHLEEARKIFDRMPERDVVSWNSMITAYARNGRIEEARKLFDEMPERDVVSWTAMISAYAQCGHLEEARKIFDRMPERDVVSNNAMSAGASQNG

T3: GFP-9S library array, motif 4 ND N98P;D124Y (synthetic construct, N98P;D124Y)
T3 chain: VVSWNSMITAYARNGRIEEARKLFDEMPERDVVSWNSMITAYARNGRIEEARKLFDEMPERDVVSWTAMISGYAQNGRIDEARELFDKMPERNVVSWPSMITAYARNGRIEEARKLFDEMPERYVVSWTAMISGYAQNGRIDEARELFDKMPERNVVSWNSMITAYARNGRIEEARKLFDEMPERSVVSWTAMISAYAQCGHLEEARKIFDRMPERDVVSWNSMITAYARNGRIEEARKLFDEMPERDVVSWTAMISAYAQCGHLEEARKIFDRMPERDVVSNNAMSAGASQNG

T4: GFP-9S library array, motif 4 ND N98F;D124G (synthetic construct, N98F;D124G)
T4 chain: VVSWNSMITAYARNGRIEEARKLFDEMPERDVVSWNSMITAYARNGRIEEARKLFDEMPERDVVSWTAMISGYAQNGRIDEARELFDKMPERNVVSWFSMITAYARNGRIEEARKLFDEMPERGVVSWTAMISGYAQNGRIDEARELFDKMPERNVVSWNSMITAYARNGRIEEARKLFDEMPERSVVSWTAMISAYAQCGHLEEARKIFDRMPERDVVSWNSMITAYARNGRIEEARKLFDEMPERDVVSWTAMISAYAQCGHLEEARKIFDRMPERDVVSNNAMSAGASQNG

T5: GFP-9S library array, motif 4 ND N98T;D124V (synthetic construct, N98T;D124V)
T5 chain: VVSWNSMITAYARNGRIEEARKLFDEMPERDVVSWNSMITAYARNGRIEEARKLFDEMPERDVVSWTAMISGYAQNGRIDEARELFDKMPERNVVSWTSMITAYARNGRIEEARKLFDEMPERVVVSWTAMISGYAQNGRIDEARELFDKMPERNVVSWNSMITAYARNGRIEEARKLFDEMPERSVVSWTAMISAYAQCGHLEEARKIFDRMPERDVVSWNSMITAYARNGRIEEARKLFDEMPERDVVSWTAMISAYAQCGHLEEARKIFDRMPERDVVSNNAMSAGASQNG


Assays:
Assay in all cases: high-throughput RNA pulldown from lysate on Ni-NTA beads; HRP: 50 mM Tris pH 8, 150 mM NaCl, 1 mM beta-mercaptoethanol, 50 ug/ml BSA, 3 ug/ml yeast RNA, 0.5% heparin; ITC and FP: Tris pH 8, 200 mM KCl, 5% glycerol; MST: 50 mM Tris pH 8, 200 mM NaCl, 1 mM DTT, BSA, heparin, 0.05% Tween 20
Settings in all cases: tags: N-terminal His-eGFP
[1] = target: T1, GFP-9S library array, motif 4 ND …
[2] = target: T2, GFP-9S library array, motif 4 ND …
[3] = target: T3, GFP-9S library array, motif 4 ND …
[4] = target: T4, GFP-9S library array, motif 4 ND …
[5] = target: T5, GFP-9S library array, motif 4 ND …

Binder | Kd ([1]; label: 5' Cy5) [nM] | Kd ([2]; label: 5' Cy5) [nM] | Kd ([3]; label: 5' Cy5) [nM] | Kd ([4]; label: 5' Cy5) [nM] | Kd ([5]; label: 5' Cy5) [nM] | Kd ([1]; label: 5' IRDye 800CW) [nM] | Kd ([2]; label: 5' IRDye 800CW) [nM] | Kd ([3]; label: 5' IRDye 800CW) [nM] | Kd ([4]; label: 5' IRDye 800CW) [nM] | Kd ([5]; label: 5' IRDye 800CW) [nM]
AUUAGACGUGA (ssRNA) [Cy5-rpoA-G] | 166 | 123 | 168 | 75.9 | 85.6 | – | – | – | – | –
AUUAAACGUGA (ssRNA) [IR-rpoA-A] | – | – | – | – | – | 329 | 137 | 416 | 139 | 31.1
AUUACACGUGA (ssRNA) [Cy5-rpoA] | 151 | 66 | 146 | 74.1 | 95.8 | – | – | – | – | –
AUUAUACGUGA (ssRNA) [IR-rpoA-U] | – | – | – | – | – | 245 | 44 | 299 | 124 | 140
